Changes are numbered by the printed parent chain.
B1: TopBP1-BRCT0-5-WT: recombinant TopBP1 amino acids 1–766, strep-tagged (protein)
chain: MSRNDKEPFFVKFLKSSDNSKCFFKALESIKEFQSEEYLQIITEEEALKIKENDRSLYICDPFSGVVFDHLKKLGCRIVGPQVVIFCMHHQRCVPRAEHPVYNMVMSDVTISCTSLEKEKREEVHKYVQMMGGRVYRDLNVSVTHLIAGEVGSKKYLVAANLKKPILLPSWIKTLWEKSQEKKITRYTDINMEDFKCPIFLGCIICVTGLCGLDRKEVQQLTVKHGGQYMGQLKMNECTHLIVQEPKGQKYECAKRWNVHCVTTQWFFDSIEKGFCQDESIYKTEPRPEAKTMPNSSTPTSQINTIDSRTLSDVSNISNINASCVSESICNSLNSKLEPTLENLENLDVSAFQAPEDLLDGCRIYLCGFSGRKLDKLRRLINSGGGVRFNQLNEDVTHVIVGDYDDELKQFWNKSAHRPHVVGAKWLLECFSKGYMLSEEPYIHANYQPVEIPVSHKPESKAALLKKKNSSFSKKDFAPSEKHEQADEDLLSQYENGSSTVVEAKTSEARPFNDSTHAEPLNDSTHISLQEENQSSVSHCVPDVSTITEEGLFSQKSFLVLGFSNENESNIANIIKENAGKIMSLLSRTVADYAVVPLLGCEVEATVGEVVTNTWLVTCIDYQTLFDPKSNPLFTPVPVMTGMTPLEDCVISFSQCAGAEKESLTFLANLLGASVQEYFVRKSNAKKGMFASTHLILKERGGSKYEAAKKWNLPAVTIAWLLETARTGKRADESHFLIENSTKEERSLETEITNGINLNSDTAEHP
modifications: left off: Strep, C-terminal, kept
notes: recombinant TopBP1 amino acids 1–766, strep-tagged
B2: TopBP1-B4mut: Val590, Thr606 and Val610 mutated to glutamate, arginine and glutamate (protein)
chain: B1 chain with V590E, T606R, V610E
modifications: left off: Strep, C-terminal, kept
B3: TopBP1-Gpp: TopBP1-BRCT0-5, central leucine-leucine motif mutated to two consecutive prolines (protein)
chain: B1 chain with L490P, L491P
modifications: left off: Strep, C-terminal, kept
notes: TopBP1-BRCT0-5, central leucine-leucine motif mutated to two consecutive prolines

Test system: DNA replication in Xenopus egg extracts
Experiment: Replication assay in TopBP1-immunodepleted Xenopus egg extract (α-32P-dCTP incorporation)
Format: biochemical, Xenopus laevis
Details: for ability to support replication (words): 6 ng/µl recombinant TopBP1 added to TopBP1-immunodepleted extract, 23 °C
Method: Fig. 5 Both GINS binding surfaces in TopBP1 cooperate in supporting genome replication. a Immobilized recombinant Flag-GINS or Flag peptide-coupled beads were used to pulldown the indicated recombinant TopBP1-BRCT0-5-strep versions (Figs. 1a and 3a) using 100 mM NaAc in the binding buffer. The pulldown was analysed by immunoblotting. […] Estimations were done for the binding interfaces involving TopBP1-GINI (blue) and TopBP1-BRCT4 (red), both together and alone. c Coomassie-stained SDS PAGE gel of the indicated recombinant TopBP1-BRCT0-5 proteins (Figs. 1a(ii) and 3a). d The indicated relative amounts (100%–10%) of immunodepleted and non-depleted Xenopus egg extracts (Xtract) were analysed by immunoblotting using anti-TopBP1 #2 and other indicated antibodies. TopBP1 antibodies #1 and #2, or unspecific IgG (mock) were used for immunodepletions. Ponc, ponceau staining. Error bars, SEM, n = 3. The experiments were done more than three times (i) or twice (ii) with similar results. e, f Replication analyses (radioactive nucleotide incorporation) using Xenopus egg extracts immunodepleted with antibodies anti-TopBP1#1, #2 or unspecific IgG (mock). Buffer (buf), recombinant wild-type (WT) or mutant TopBP1-BRCT0-5-strep (c) were added. Diamonds, Individual data points of n = 3 independent experiments, Error bars, SEM. Source data are provided as a Source data file.
Xenopus laevis egg extracts were prepared from metaphase II arrested eggs as described in ref. [79]. After washing with MMR (100 mM NaCl, 2 mM KCl, 1 mM MgCl2, 2 mM CaCl2, 0.1 mM EDTA, 5 mM HEPES–NaOH, pH 7.8) eggs were dejellied (2% cysteine w:v in H2O, pH 7.8 with NaOH). Eggs were rinsed in XBE2 (100 mM KCl, 2 mM MgCl2, 0.1 mM CaCl2, 1.71% w:v sucrose, 5 mM K-EGTA, 10 mM HEPES–KOH, pH 7.7). Then, the eggs were transferred into centrifuge tubes containing 1 ml XBE2 + 10 µg/ml protease inhibitor (aprotinin Sigma A6279, leupeptin Merck 108975, pepstatin Carl Roth 2936.1) + 100 µg/ml cytochalasin D (Sigma C8273). For packing, eggs were centrifuged for 1 min at 1400 × g at 16 °C in a swingout rotor. Excess buffer, activated and apoptotic eggs were removed before crushing the eggs at 16,000 × g for 10 min at 16 °C. The extract was collected with a 20 G needle and supplemented with 10 µg/ml cytochalasin D, 10 µg/ml protease inhibitors, 1:80 dilution of energy regenerator (1M phosphocreatine K salt, 600 µg/ml creatine phosphokinase in 10 mM HEPES–KOH pH 7.6) and LFB1/50 (10% w-v sucrose, 50 mM KCl, 2 mM MgCl2, 1 mM EGTA, 2 mM DTT, 20 mM K2HPO4/KH2PO4 pH 8.0, 40 mM HEPES–KOH, pH 8.0) to 15% (v:v). The extract was cleared at 84,000 × g at 4 °C for 20 min in a swingout rotor. The cytoplasmatic layer was collected and supplemented with 2% glycerol v:v. […]

Molecule	ability to support replication (words)	ability to support replication (words) (listed as B4mut)	reduction in nucleotide incorporation (120 min time point, TopBP1-immunodepleted Xenopus egg extract, 6 ng/µl protein) [%]
B1	effectively rescued replication in depleted extracts	–	–
B2	not detectably compromised in their abilities to support replication	do not aﬀect grossly the replica+on-inducing	–
B3	–	–	55

— paper PMC10899662, “TopBP1 utilises a bipartite GINS binding mode to support genome replication” (Nature Communications, 2024)
